Data taken from the DeepSol protein solubility set.

assay: soluble on expression in E. coli; label from the status in PepcDB or PDB records

Sequence | soluble on expression in E. coli
VLSRIQFVSRFGSNLVHIEGVKGSGKSWLAQRYLEKWCDDADQVLLMCHPNQSIQQQRGIILKQVVRDPLFNESDSVVDSVGRMLAGEKCNLVLAIDDAHLLSSELLSELWLLVQKAQSAPNWQINILLFAEKGKLTQTLSQMSYGQDNKPVDIDINP | not soluble
VMGNEYPDWIWGLSTTLRYKDWTLGISLDGRVGGMAYSRTEQTMWNTGVHPDSDNKWRYDEVVNGKKNYVGQGVKVVSGKVEYDTTGKIVSDTRVFAPNDTQVSYESYIKNYNPWSGGKVYQNVHDCTFLKLRELSLLYTMPKSVCEKIHMKGVTLGLIGQNLLIWMKEFKYADPDVDSDDLNSPSMRYVGFNVKFDL | not soluble
VMNRMATALGGDYFDFISMPDGREVVFIGDVTGHDIQSSVVMSLVYGFLHHCALTVDDPLTMVSQLNRFLVRFADHGTELDHHFSSTLFLGIIDPASLRLEYVNAGHVPPLVLRRNSLHRLASTSPPVGFFAEAEVATGCFGLERGDRLLLYTDGILDASNGTETFGAERLDAFLTATGGSYTRFMDELAAALRDFGAGDPPDDDCSAIVIDI | not soluble
VNPKQPDLGVHVHLVRNVCTVSLDSSGASLDRRGYRTEAGEAPLRETLAAALVEMTGWDGTVPLLDPMCGSGTILVEAALKALNRAPGLIRERFGFQHWPSFDSSLWLRLVTEARQGERTSLESPLLGSDQQADLLSVAAANARRAGVEQHISFTSGDVRGLTPPPAPGIILFNPPYGRRLGDEEGLRVLYRQIGDVLKQRCAGYTAWLLTGGPELAKAVGLRASRRIVLFNGPLECRFLRFDLY | not soluble
VNSVTISVEGMTCNSCVWTIEQQIGKVNGVHHIKVSLEEKNATIIYDPKLQTPKTLQEAIDDMGFDAVIHNIEGR | soluble
VNYRTPAEIMSVANELLTQINPDIAPAMAIRESGREVVNLPLDADLSAVMDSLREEDSQRTIAVISSRRHHESDFYLVDDIKGLEFDHVIVVDPAGIVEESPQGLQDLYVAVTRATQSLTILGE | not soluble
VPKLIDHDRRQQEIAEAVWRVIQREGIGAVSVRDVAAEAGISSGSLRHVFASKTELLAYSMRLVATRVRERAQAHASITDPWQRALAVLDEVLPLDDRRRCEMEVNLALVAESPAHPLLKDIALDAQRQLRGACAAILTGLAQWGLIAPDIDVDAEAMRLHALVDGAAMHVLLGDTDTPDTARRMIAEHLRTLL | not soluble
VSDVPRDIEVVAVTPTSALISWDAPAVTIRYIRLTYGETGGNSPVQEITLPGSKSTYTISGLKPGTDYTVTLYSVTGRGDSPASSKPASINFRTEI | soluble
VSVITSEMKMELRMEGAVNGHKFVITGKGSGQPFEGIQNMDLTVIEGGPLPFAFDILTTVFDYGNRVFVKYPEEIVDYFKQSFPEGYSWERSMSYEDGGICLATNNITMKKDGSNCFVYEIRFDGVNFPANGPVMQRKTVKWEPSTEKMYVRDGVLKGDVNMALLLQGGGHYRCDFRTTYKAKKVVQLPDYHFVDHRIEITSHDKDYNKVKLYEHAKAHSGLPRLAK | soluble
VSYVSVLPATLATAATEVARIGSALSLASAVAAAQTSAVQAAAADEVSAAIAALFSAHGRDFQALSARAAAFHHEFVQALAAGAGSYAVAEIAAASPLQSLIDVFNAPIQAATGRPLIGNGANGQPGTGAPGGPAGG | soluble
VTDVLLCVGNSMMGDDGAGPLLAEKCAAAPKGNWVVIDGGSAPENDIVAIRELRPTRLLIVDATDMGLNPGEIRIIDPDDIAEMFMMTTHNMPLNYLIDQLKEDIGEVIFLGIQPDIVGFYYPMTQPIKDAVETVYQRLEGWEGNGGFAQLAVEEE | soluble
VTVTLCSPTEDDWPGMFLLAAASFTDFIGPESATAWRTLVPTDGAVVVRDGAGPGSEVVGMALYMDLRLTVPGEVVLPTAGLSFVAVAPTHRRRGLLRAMCAELHRRIADSGYPVAALHASEGGIYGRFGYGPATTLHELTVDRRFARFHADAPGGGLGGSSVRLVRPTEHRGEFEAIYERWRQQVPGGLLRPQVLWDELLAECKAAPGGDRESFALLHPDGYALYRVDRTDLKLARVSELRAVTADAHCALWRALIGLDSMERISIITHPQDPLPHLLTDTRLARTTWRQDGLWLRIMNVPAALEARGYAHEVGEFSTVLEVSDGGRFALKIGDGRARCTPTDAAAEIEMDRDVLGSLYLGAHRASTLAAANRLRTKDSQLLRRLDAAFASDVPVQTAFEF | not soluble
VVAPITTGYTVKISNYGWDQSDKFVKIYITLTGVHQVPTENVQVHFTERSFDLLVKNLNGKSYSMIVNNLLKPISVEGSSKKVKTDTVLILCRKKVENTRWDYLTQVEKECKEK | soluble
VVKLAFPRELRLLTPSQFTFVFQQPQRAGTPQITILGRLNSLGHPRIGLTVAKKNVRRAHERNRIKRLTRESFRLRQHELPAMDFVVVAKKGVADLDNRALSEALEKLWRRHCRLARGS | soluble
VVKQDLSDNQYIQKKPNEITSNELLLPLPNDKLLGDPKAPILMIEYASLTCYHCSLFHRNVFPKIKEKYIDTGKMLYIFRHFPLDYRGLKAAMLSHCYEKQEDYFNFNKAVFNSIDSWNYYNLSDLTLLQRIAALSNLKQDAFNQCINDKKIMDKIVNDKSLAINKLGITAVPIFFIKLNDDKSYIEHNKVKHGGYKELKYFTNVIDKLYGKAIVKLEHHHHHHHH | soluble
VVPAQHRPPDRPGDPAHDPGRGRRLGIDVGAARIGVACSDPDAILATPVETVRRDRSGKHLRRLAALAAELEAVEVIVGLPRTLADRIGRSAQDAIELAEALARRVSPTPVRLADERLTTVSAQRSLRQAGVRASEQRAVIDQAAAVAILQSWLDERLAAMAGTQEGSDA | not soluble
VYGDIWGFETDRYFTKDDFNADGSYKEGIASQKKLEQDGFVYGPGDIKFKDLNNDKEINGGEGTVKDHGDLKVIGNTTPRYQYGFRLGGEWKGIDIDMFFQGVGKCDAWTQSAFVMPMMRGADAIYANQANYWTDENPDPNADFPRMWPGNAGKGTVSVLDLGNHNFYPQSKYLVNMAYLRFKNLTIGYTLPKDWTRKVYMDKVRVYFSANNICELINKSNAPVDPEVNTSEAIANGGSSDYGNGTWGRVDPMYRTVSFGLQVTF | not soluble
WKTTLKLTLDNVVKLEKLKPLVEDFYREFEFAELQINMEVFNGSWEAIAQGRADIVVGATSAVPVGGDFEVKDMGVLDWAFVMSPAHPCVRQQVLTEEFVSQFPAICLDDTSNVLPKRHTGHYAKQRRLLLPNWYSAIECLKNGVGVGYMPRHIAMPLIHEGVLVEKLLQDDKPLSRCCLVWRKDDDHKLIQWMVDYLGSPNQLHQDWLQC | soluble
WRKKRKDAKNNEVSFSQIKPKKSKLIRVENFEAYFKKQQADSNCGFAEEYEDLKLIGISLPKYAAEIAENRGKNRYNNVLPYDISRVKLSVQTHSTDDYINANYMPGYHSKKDFIATQGPLPNTLKDFWRMVWEKNVYAIVMLTKCVEQGRTKCEEYWPSKQAQDYGDITVAMTSEVVLPEWTIRDFVVKNMQSSESHPLRQFHFTSWPDHGVPDTTDLLINFRYLVRDYMKQIPPESPILVHCSAGVGRTGTFIAIDRLIYQIENENTVDVYGIVYDLRMHRPLMVQTEDQYVFLNQCVLDIIRAQKDSKVDLIYQNTTAMTIYENLERVSMFGKANGYIA | soluble
WTCNKFRCGEKRLTRSLCACSDDCKDQGDCCINYSSVCQGEKS | soluble
WYGSPQFDGKYVHWDHPLLPHWDPKVASSYSTGRHQPPEDIGANFYPALGPYSSRDPAVLEEHMRQLRMAAVGVLAVSWYPRSMKDDNGEEIDSLLPLILDAADKYQLKVLYNLYVFKNVICINKYV | soluble
YAYKSNTYFKLKKKNIKLNGNIIKKSCKLGIPVALQNSLIAFSLIVLQKVVNGYGATFTTAFTVVSRIETLVQQPFMSLGAAVSTYTGQNIGAGLKDRVRKGFN | not soluble
YGKQRKASVIGAINTVSMNELKMPVAKLSSGLAGQLAGIVVMQRSGEPGAGADFWIRGINTFGAGNKPLVLVDGVERSMDLVDVEDIASFSILKDATATALYGVRGANGIVLITTKRGTES | not soluble
YPFYAQYNYDSPREATGKIVCANCHLAKKTVEIEVPQAVLPDTVFKAVVKVPYDLDIQQVQADGSPSGLNVGAVLMLPEGFKLAPPERVDEELMEEVGDFYYLVTPYSETDENILLAGPLPGEDYQEMIFPILSPNPATDAGVYFGKYSIHLGGNRGRGQVYPTGELSNNNAFSASIAGTIAAIEDNGFGFDVTIQPEDGDAVVTSILPGPELIVAVGDTVEAGQLLTTNPNVGGFGQMDSEIVLQSSS | soluble
YSSAYKEFIKKSMKYRTEEDTFTDANGLAGCRYWSPKNYEKIARMMAQPKYKPAFAYLFFFRSYVNDQQITSCVFQVQRDGMPESILVQPVLRDESSVTLE | not soluble
